Measured values reported in patent US20180264110A1.

How the values were obtained:
[1] = molecular target: BTLA overexpressed on 293T cells (human) (UniProt Q7Z6A9); assay: FACS, 293T cells overexpressing BTLA; secondary antibody alone (background control)
[2] = molecular target: BTLA overexpressed on 293T cells (human) (UniProt Q7Z6A9); assay: FACS, 293T cells overexpressing BTLA

Sequence of BTLA overexpressed on 293T cells (human) (Q7Z6A9 31-289 limits assumed): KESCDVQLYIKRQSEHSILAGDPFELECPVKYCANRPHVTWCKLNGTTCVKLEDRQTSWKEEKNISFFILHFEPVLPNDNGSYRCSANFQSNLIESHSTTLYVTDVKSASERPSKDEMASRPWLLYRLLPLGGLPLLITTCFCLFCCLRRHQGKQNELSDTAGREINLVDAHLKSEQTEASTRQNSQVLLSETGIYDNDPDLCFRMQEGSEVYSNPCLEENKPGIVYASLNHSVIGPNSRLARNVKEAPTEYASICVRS

2′Ab only (antibody)
% Gate [1]: 10.1% | MR [1]: 16.6

BTLA (MIH26) (antibody)
% Gate [2]: 91.3% | MR [2]: 2850

Isotype (antibody)
% Gate [2]: 5.08% | MR [2]: 11.7
